Article PMC11169542, “A probe for NIR-II imaging and multimodal analysis of early Alzheimer’s disease by targeting CTGF” (Nature Communications, 2024)
Ends that are not written are not given here.

Legend:
CTGF [1] = target: T1, CTGF (Mus musculus, UniProt P29268); test: In vivo NIR-II imaging of brain after DGC injection; set-up: species or system APP/PS1 and wild-type C57BL/6J mice; details: APP/PS1 mice
T1 construct: brain sections of the age-matched wild-type C57BL/6J mice were used as controls; from tissue; host or cells: brain of APP/PS1 transgenic and wild-type C57BL/6J mice (sections, living animal, perfused isolated brain)
T1 sequence (P29268 26-348): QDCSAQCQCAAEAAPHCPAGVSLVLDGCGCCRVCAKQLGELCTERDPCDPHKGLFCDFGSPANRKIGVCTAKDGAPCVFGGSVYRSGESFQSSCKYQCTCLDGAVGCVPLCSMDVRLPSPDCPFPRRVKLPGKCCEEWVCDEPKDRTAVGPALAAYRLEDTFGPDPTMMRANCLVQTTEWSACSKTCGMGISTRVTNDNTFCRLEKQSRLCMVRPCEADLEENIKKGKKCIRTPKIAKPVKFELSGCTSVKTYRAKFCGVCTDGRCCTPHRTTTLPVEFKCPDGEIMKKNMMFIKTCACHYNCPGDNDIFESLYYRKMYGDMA
Procedure: All animal procedures were performed under an approved protocol of the Ethics Committee of Beijing University of Technology, China. Female APP/PS1 mice and age-matched wild-type C57BL/6J mice were shaved before background imaging. For NIR-II imaging in vivo with DGC, the mice (n = 3) were fasted overnight before the experiment and then injected intravenously with DGC (20 mg/kg, 200 μL). NIR-II imaging of the brains was carried out on an In vivo Master (Grand-imaging Technology) equipped with an InGaAs camera C-RED2 (Firstlight) at different time points after injection of DGC (λ ex = 808 nm, 1000 nm longpass (LP) filter (Edmund Optics)). The excitation intensity of the 808 nm laser (Wuhan Grand-imaging Technology) was about […] and the optical images were acquired using an exposure time of 50 ms. Imaging data were analyzed by ImageJ software.

CTGF [2] = target: T1, CTGF; test: Ex vivo NIR-II imaging of perfused brains after DGC injection; format: in vivo, APP/PS1 mice; details: 20 mg/kg i.v., saline perfusion, relative to 1 month
Procedure: (§1) Mice were then perfused intracardially with saline and 4% PFA, and major organs (including the brain, heart, liver, spleen, lung, and kidney were isolated. The dissociated brains were performed NIR-II imaging ex vivo using the same method as in vivo imaging (n = 3). All isolated organs were also imaged by the NIR-II imaging system (λ ex = 808 nm, 1000 nm longpass (LP) filter (Edmund Optics)). And then, the brains were kept in 4% PFA overnight and embedded with paraffin. Sections with 5-μm thickness were cut and analyzed by immunostaining with antibodies to CTGF (dilution 1: 50, Abcam, Cat#ab6992), GFAP (dilution 1:100, Proteintech, Cat#16825-1-AP), CD31 (dilution 1:200, Beyotime, Cat#AF6408), Neun (dilution 1:300, abcam, Cat# ab177487), and Iba 1 (dilution 1:50, Beyotime, Cat# AF7143), respectively.

[3] = Biodistribution of DGC in organs by ex vivo NIR-II imaging; set-up: species or system APP/PS1 and wild-type mice; details: ex vivo NIR-II observation of major organs
Procedure: as §1

[4] = Effect of DGC on blood biochemistry of mice; format: in vivo, C57BL/6J mice; details: DGC group, mean of 3 mice
Excerpt: In order to clarify the NIR-II signal in AD brains when in vivo imaging is arisen from the DGC probe that bound to CTGF, we selected 3-month-old APP/PS1 mice representing early-stage AD and the age-matched WT mice as control to performed ex vivo multimodal analysis of the brain sections. […] To exclude the influence of vascular retention, we emptied the cerebral vessels by cardiac perfusion and performed ex vivo imaging of the brains. […] For brain sections made from AD mice after tail vein injection of DGC, the red fluorescence observation and LA-ICP-TOF-MS of DGC, as well as a POD-like catalysis test were performed. […] In Fig. 6c, the colocalization of DGC (red fluorescence) and CTGF (green fluorescence) on the ex vivo brain sections confirmed the specificity of DGC targeting CTGF in vivo. To further identify the cellular target of DGC in the brain of APP/PS1 mice, we carried out immunofluorescence staining on the ex vivo brain sections after tail vein injection of DGC where cell-specific fluorescent antibodies for microglia (Iba 1), neurons (NeuN), vascular endothelial cell (CD31) and reactive astrocytes (GFAP) were applied. In Fig. 6d, […] co-localizes with GFAP-positive active astrocytes and CD31-positive microvessels, but not with neurons or microglia. […] The biosafety of DGC in C57BL/6J mice under the NIR-II imaging condition was evaluated by blood tests (blood cells and biochemical analysis) and organ pathological analysis (H&E staining).

DGC: CTGF-targeting peptide-coated gold nanocluster: one Au26 gold nanocluster coated by eight DAG cyclic peptides, NIR-II and red fluorescence (CDAGRKQKC; also: cyclic peptide, ring not given here, eight peptides on one Au26 nanocluster via Cys Au-S bonds)
NIR-II fluorescence in the brains (CTGF [1]; 24 h after injection): still observed | time of peak brain NIR-II signal (CTGF [1]; after tail vein injection of DGC): 4 h | ex vivo NIR-II fluorescence (FL) intensity in brain (CTGF [2]; 1-month-old APP/PS1 mice, brain 1): 1 | ex vivo NIR-II fluorescence (FL) intensity in brain (CTGF [2]; 1-month-old APP/PS1 mice, brain 2): 1 | ex vivo NIR-II fluorescence (FL) intensity in brain (CTGF [2]; 1-month-old APP/PS1 mice, brain 3): 1 | ex vivo NIR-II fluorescence (FL) intensity in brain (CTGF [2]; 2-month-old APP/PS1 mice, brain 1): 1.473 | ex vivo NIR-II fluorescence (FL) intensity in brain (CTGF [2]; 2-month-old APP/PS1 mice, brain 2): 1.458 | ex vivo NIR-II fluorescence (FL) intensity in brain (CTGF [2]; 2-month-old APP/PS1 mice, brain 3): 1.501 | ex vivo NIR-II fluorescence (FL) intensity in brain (CTGF [2]; 3-month-old APP/PS1 mice, brain 1): 1.722 | ex vivo NIR-II fluorescence (FL) intensity in brain (CTGF [2]; 3-month-old APP/PS1 mice, brain 2): 1.714 | ex vivo NIR-II fluorescence (FL) intensity in brain (CTGF [2]; 3-month-old APP/PS1 mice, brain 3): 1.766 | ex vivo NIR-II fluorescence (FL) intensity in brain (CTGF [2]; 6-month-old APP/PS1 mice, brain 1): 2.766 | ex vivo NIR-II fluorescence (FL) intensity in brain (CTGF [2]; 6-month-old APP/PS1 mice, brain 2): 2.744 | ex vivo NIR-II fluorescence (FL) intensity in brain (CTGF [2]; 6-month-old APP/PS1 mice, brain 3): 2.849 | ex vivo NIR-II fluorescence (FL) intensity in brain (CTGF [2]; 9-month-old APP/PS1 mice, brain 1): 3.728 | ex vivo NIR-II fluorescence (FL) intensity in brain (CTGF [2]; 9-month-old APP/PS1 mice, brain 2): 3.62 | ex vivo NIR-II fluorescence (FL) intensity in brain (CTGF [2]; 9-month-old APP/PS1 mice, brain 3): 3.948 | metabolism and excretion route [3]: mainly metabolized by the liver and excreted through the kidney and liver | Urea (UREA) [4]: 9.62 ± 1.25 | Alanine aminotransferase (ALT) ([4]; in U/L (unit assumed)): 32.8 ± 4.26 | Alkaline phosphatase (ALP) ([4]; in U/L (unit assumed)): 220.7 ± 27.07 | Aspartate aminotransferase (AST) ([4]; in U/L (unit assumed)): 120.2 ± 20.04 | Creatinine (CREA) ([4]; in µmol/L (unit assumed)): 22.67 ± 1.98
